# B1: H1H6975N-DM1 (conjugate)
# VH: EVHLVESGGGLVQPGGSLRLSCAASGFTFSSYEMNWVRQTPGKGLEWISHISSRSVIIYYADSVKGRFTISRDNAKNSLFLQMNSLRAEDTAVYFCAGITIFGIPEYWGQGTLVTVSS
# VL: EIVLTQSPATLSLSPGERATLSCRASQSVSSYFAWYQQKPGQAPRLLIYDASSRATGIPTRFSGSGSGTDFTLTISSLEPEDFAVYYCQQRSSWPITFGQGTRLEIK
# B2: H1H6975P-mc-VC-PAB-MMD (conjugate)
# VH: B1 VH
# VL: B1 VL
# B3: H1H6765P-SMCC-DM1 (conjugate)
# VH: EVQLVESGGGVVRPGGSLRLSCVGSGFSFDDHGMNWVRQGPGKGLEWVSGFNWNGGSTNYAESVKGRFTISRDNARNSLFLQMNSLRAEDTALYYCVRGRSGWFNDAFDVWGPGTMVTVSS
# VL: EIVLTQSPGTLSLSPGERATLSCRASQTINSNYLAWYRQKPGQTPRLLIYGTSSRATGIPDRFSGSGSGTDFSLTISRLEPEDFAVFYCQQYAGLPTFGPGTKVDIK
# B4: H1H6765P-mc-VC-PAB-MMAE (conjugate)
# VH: B3 VH
# VL: B3 VL
# B5: H1H6782P-mc-VC-PAB-MMD (conjugate)
# VH: EVQLVESGGGLVQPGRSLRLSCAASGFTFDDYAMHWVRQAPGKGLEWVSGIIWNSGHIGYGDSVKGRFTISRDNAKKSLYLQMNSLRAEDTALYYCARDSGRYQSYFDYWGQGTLVTVSS
# VL: DIQMTQSPSTLSASVGDRVTITCRASHIISSWLAWYQQKPGKAPKVLIFKASSLESGVPSRFSGSGSGTEFTLTISSLQPDDFATYYCQQYNTYSRTFGQGTKVEIK
# B6: H1H6782P-mc-VC-PAB-MeNHC3-May (conjugate)
# VH: B5 VH
# VL: B5 VL
# B7: H1H6793P-DM1 (conjugate)
# VH: EVQLVESGGGLVQPGGSLRLSCAASGFSFSIYAMSWFRQAPGKGLEWVSAINGRGDGTHYADSVKGRFTISRDNSKTTLYLQMSSLRAEDTAVYYCAKPVMSTNGFDIWGQGTMVTVSS
# VL: DIQMTQSPSTLSASVGDRVTITCRASQSISSWLAWYQLKPGKAPKLLIYKASNLESGVPSRFSGSGSGTEFTLTISSLQPDDFATYYCQQYNIYWTFGQGTKVEIK
# B8: H1H6762P-DM1 (conjugate)
# VH: QVQLVESGGGVVQPGRSLRLSCAASGFTFSHYGMVWVRQPPGKGLEWVALISFDGTTKYYADSVKGRFTISRDNSKNTLYLQMNSLRAEDTAVYFCVGAIAAAAFDLWGRGTLVTVSS
# VL: EIVMTQSPATLSVSPGERATLSCRASQSVSSDLAWYQQKPGQAPRLLIYSASARATGIPARFTGSGSGTDFTLTISSLQSEDFAVYYCQQYNNWPMYTFGQGTKLEIK
# B9: H1H6800P-DM1 (conjugate)
# VH: EVQLVESGGGLVQPGRSLRLSCAASGFTFDGYAMHWVRQGPGKGLEWVSGISWYSDTLGYADSVKGRFTISRDNAKNSLYLQMNSLRTEDTAFYYCAKISSSGWAFDYWGQGTLVTVSS
# VL: EIVLTQSPGTLSLSPGERATLSCRASHSVSSAYLAWYQQKPGQTPRLLIYGTSSRATGIPDRFSGSGSGTDFTLTISRLEPEDFAVYYCQQYGSSPLFTFGPGTKVDIK
# B10: H1H6960N-DM1 (conjugate)
# VH: EVQLVESGGGLVKPGGSLRLSCAASGITFSSYSMNWVRQAPGKGLEWVSSISTRSSLIHYADSVKGRFTISRDNAKNSLYLQMNSLRDEDTAVYYCARWDAAAAFDYWGQGTLVIVSS
# VL: DIQLTQSPSFLSASVGDRVTITCWASQGISSYLAWYQQKPGKAPKLLIYVASTLQSGVPSRFSGSGSGTEFTLTISSLQPEDFATYFCQQLNSYPLTFGGGTKVEIK
# B11: H1H6953N-SMCC-DM1 (conjugate)
# VH: EVQLLESGGGLVQPGGTLRLSCAASGFTFSAYAMSWVRQAPGKGLEWVSSINVRAGDTYYADSVKGRFTISRDNSKNTLFLLMNSLRAEDTAAYYCAKARYSSNWGFDFWGQGTLVTVSS
# VL: DIVMTQSPDSLTVSLGARTTINCQSSQTILHSSNNHNYLAWYQQKPGLPPKLLIYWSSTRESGVPDRFSGSGSGTDFTLTISSLQAEDVAIYYCQQYSNTPYTFGQGTKLEIN
# B12: H1H6953N-mc-VC-PAB-MMD (conjugate)
# VH: B11 VH
# VL: B11 VL
# B13: H1H6953N-mc-VC-PAB-MeNHC3-May (conjugate)
# VH: B11 VH
# VL: B11 VL
# B14: H1H6953N-mc-VC-PAB-MMAE (conjugate)
# VH: B11 VH
# VL: B11 VL
# Tests used:
# PC3 cells = test: In vitro cell viability (cell kill) assay, CCK8; format: cell-based, human
# Source text: (§1) PRLR-overexpressing cells, including HEK293, PC3, MCF7 and NCI-N87, were generated to assess the ability of anti-PRLR conjugated antibodies to reduce cell viability. For comparative purposes, PC3 and T47D cells with overexpressed ErbB2 were also generated, as well as an MCF7 cell line over-expressing both hPRLR and hErbB2. Briefly, Lipofectamine® 2000-mediated transfection methodology was utilized to generate HEK293 cells expressing human PRLR (HEK293/hPRLR) or human ErbB2 (HEK293/hErbB2). Lipofectamine LTX with Plus Reagent was used to generate PC3 cells expressing human PRLR (PC3/hPRLR) or human ErbB2 (PC3/hErbB2). Lentiviral-mediated transduction was utilized to generate MCF7 cells expressing human PRLR (MCF7/hPRLR), NCI-N87 cells expressing human PRLR (NCI-N87/hPRLR), T47D cells over-expressing human ErbB2 (T47D/hErbB2), and MCF7 cells expressing both human PRLR and human ErbB2 (MCF7/hPRLR/hErbB2). All lines were selected for at least two weeks in complete growth media plus appropriate selection reagents. Stably expressing populations were enriched for PRLR expression via FACS using the anti PRLR antibody Control I.
# (§2) Next, the ability of anti-PRLR-DM1 antibody-drug conjugates (i.e., anti-PRLR antibodies conjugated to DM1 via a non-cleavable linker [SMCC]) to reduce cell viability was determined using in vitro cell based assays. Cells were seeded in PDL-coated 96 well plates at 1500 to 10000 cells per well in complete growth media and allowed to grow overnight. For cell viability curves, ADCs or free DM1 (as the methyl disulfide derivative DM1-SMe) were added to the cells at final concentrations ranging from 500 nM to 5 pM and incubated for 3 days. The 293, PC3 and T47D cells were incubated with CCK8 (Dojindo, Rockville, Md.) for the final 1-3 hours and the absorbance at 450 nm (OD450) was determined on a Flexstation3 (Molecular Devices, Sunnyvale, Calif.). MCF7 cells were treated with Hoechst 33342 nuclear stain while being fixed with 4% formaldehyde. Images were acquired on the ImageXpress micro XL (Molecular Devices, Sunnyvale, Calif.) and nuclear counts were determined via Columbus image analysis software (Perkin Elmer, Shelton, Conn.). Background OD450 values (PC3, 293, and T47D) or nuclear counts (MCF7) from digitonin (40 nM) treated cells was subtracted from all wells and viability was expressed as a percentage of the untreated controls. IC50 values were determined from a four-parameter logistic equation over a 10-point response curve (GraphPad Prism).
# MCF7/PRLR tumors = test: MCF7/PRLR breast cancer xenograft, tumor size and tumor growth inhibition; format: in vivo, NCr nude mice; settings: for Average Tumor Growth Inhibition (%) / Final Tumor size mm^3 (mean ± SEM): MCF7/PRLR tumors TRIAL #1, NCr Nude mice, Day 52
# Source text: (§3) Briefly, 20×10^6 MCF7/PRLR cells (ATCC HTB-22 transfected with full length hPRLR as previously described) were implanted subcutaneously into the left mammary fat pad of female NCr nude mice. In other studies, 10×10^6 PC3/PRLR (ATCC CRL-1435 transfected with full length hPRLR as previously described) were implanted subcutaneously into the left flank of male SCID mice. Additionally, 10×10^6 parental T47D (ATCC HTB-133) or 7.5×10^10 T47D #11 cells (ATCC HTB-133 serially passaged in vivo as described below) were subcutaneously implanted into the left flank of female CB17 SCID mice. All mice were obtained from Taconic (Hudson, N.Y.). Each bolus of cells was supplemented with a 90-day estrogen release pellet (1.7 mg/pellet; Innovative Research America, Sarasota Fla.). […] Control reagents included PBS vehicle, free methyl-disulfide DM1 (DM1-SMe) and isotype Control 1-DM1.
# (§4) In multi-dose studies, mice were dosed once a week for a total of three weeks with tumor volumes and body weights being monitored twice weekly throughout the study. Test ADCs were dosed at 5 and/or 15 mg/kg in the multi-dose studies. In single-dose studies, mice received a single dose of test ADC, and tumor volumes and body weights were monitored twice weekly throughout the study. Test ADCs were dosed at 1, 2.5, 5, and 15 mg/kg in the single-dose studies. Average tumor size as well as tumor growth inhibition relative to the vehicle treated group were calculated for each group. Tumors were measured with calipers twice a week until the average size of the vehicle group reached 1000 mm^3. Tumor size was calculated using the formula (length×width^2)/2. Tumor growth inhibition was calculated according to the following formula: (1−((Tfinal−Tinitial)/(Cfinal−Cinitial)))*100, where T (treated group) and C (control group) represent the mean tumor mass on the day the vehicle group reached 1000 mm^3. […] Results are summarized in Tables 21-25 (multi-dose) and Table 26 (single dose). (NT=not tested in the particular experiment shown).
# PC3/PRLR tumors = test: PC3/PRLR xenograft, tumor size and tumor growth inhibition; format: in vivo, SCID mice
# Source text: as §3, §4
# HEK293 (293) cells = test: In vitro cell viability (cell kill) assay, CCK8; format: cell-based, human; settings: 293
# Source text: as §1, §2
# [1] = PC3/PRLR tumors TRIAL #1, SCID mice, multi-dose 5 mg/kg, Day 63
molecule,measurement,setting,value
B1,% Kill,"PC3 cells; Table 11, 3 days",71%
same,Average Tumor Growth Inhibition (%),MCF7/PRLR tumors; multi-dose 5 mg/kg,118%
same,Final Tumor size mm^3 (mean ± SEM),MCF7/PRLR tumors; multi-dose 5 mg/kg,125 ± 46 mm^3
same,Average Tumor Growth Inhibition (%),MCF7/PRLR tumors; multi-dose 15 mg/kg,135%
same,Final Tumor size mm^3 (mean ± SEM),MCF7/PRLR tumors; multi-dose 15 mg/kg,0 ± 0 mm^3
same,MCF7/PRLR tumor growth,"MCF7/PRLR tumors; first multi-dose trial, 5 and 15 mg/kg",potently inhibited MCF7/PRLR tumor growth
same,Average Tumor Growth Inhibition (%),PC3/PRLR tumors; [1],31%
same,Final Tumor size mm^3 (mean ± SEM),PC3/PRLR tumors; [1],973 ± 169 mm^3
same,Final Tumor size mm^3 (mean ± SEM),"PC3/PRLR tumors; PC3/PRLR tumors TRIAL #1, SCID mice, multi-dose 15 mg/kg, Day 63",895 ± 63 mm^3
same,PC3/PRLR tumor growth,"PC3/PRLR tumors; multi-dose, especially at 15 mg/kg",demonstrated inhibition of tumor growth
B2,IC50,HEK293 (293) cells; Table 19,110 nM
B3,% Kill,PC3 cells; Table 18,80%
same,IC50,PC3 cells; Table 18,80 nM
B4,% Kill,PC3 cells; Table 18,29%
B5,IC50,HEK293 (293) cells; Table 19,230 nM
B6,IC50,HEK293 (293) cells; Table 19,60 nM
B7,% Kill,"HEK293 (293) cells; Table 11, 3 days",84%
same,IC50,"HEK293 (293) cells; Table 11, 3 days",100 nM
same,% Kill,"PC3 cells; Table 11, 3 days",72%
same,IC50,"PC3 cells; Table 11, 3 days",200 nM
B8,% Kill,"HEK293 (293) cells; Table 11, 3 days",89%
same,% Kill,"PC3 cells; Table 11, 3 days",78%
same,IC50,"PC3 cells; Table 11, 3 days",250 nM
B9,% Kill,"PC3 cells; Table 11, 3 days",72%
B10,IC50,"HEK293 (293) cells; Table 11, 3 days",75 nM
same,% Kill,"PC3 cells; Table 11, 3 days",80%
same,IC50,"PC3 cells; Table 11, 3 days",150 nM
B11,% Kill,PC3 cells; Table 18,81%
B12,IC50,HEK293 (293) cells; Table 19,110 nM
B13,% Kill,HEK293 (293) cells; Table 19,20%
B14,% Kill,PC3 cells; Table 18,49%
same,IC50,PC3 cells; Table 18,130 nM
